Reference: patent US20250367292A1, “HLA SUPERAGONISTS AND USES THEREOF” (UNIVERSITY HEALTH NETWORK, priority 2021, published 2025)

Molecular target: T1, HLA-A*24:02-restricted peptides (Homo sapiens, UniProt P04439, D101N/D140Y/D185E/E176V/E190D/F33S/G103R/G107R/I119L/I121M/I306V/K335N/L105A/L180Q/L300P/N151K/N90K/Q86E/Q94H/R106L/R138H/R89G/T104I/T345S/V100E/W191G/Y123F)
T1 construct: T2 cells transduced with the full-length HLA-A*24:02 genes tagged with ΔNGFR; Furin-SGSG-F2A-linked truncated NGFR (ΔNGFR) co-expression marker (C); expressed in transfected cells; host or cells: T2 cells, retrovirally transduced (pMX)
Assay: Peptide-HLA binding assay (biotinylated peptide, SA-PE, flow cytometry)
Type: cell-based
Details: irrelevant control peptides
Protocol: T2-A24 (Wild-type) cells, or T2-A24 cells with a single amino acid substitution at position 81, 82, or 83 were pulsed with 50 μg/ml of biotinylated peptide overnight at 37° C. After intensive washing, the cells were stained by PE-conjugated streptavidin (SA-PE), washed and fluorescence intensity was measured by flow cytometry analysis.

HLA-A*24:02 (A81L): HLA-A*24:02 with an Ala to Leu substitution at position 81 (A81L), corresponding to SEQ ID NO: 1
peptide presentation by T2 cells towards non-HLA-A*24:02 restricted peptides: no increase
